T1: human CD73 (huCD73) protein, antigen of the Biacore assay (human, UniProt P21589 27-547, limits assumed)
T1 construct: also called human CD73 antigen
T1 sequence (looked up): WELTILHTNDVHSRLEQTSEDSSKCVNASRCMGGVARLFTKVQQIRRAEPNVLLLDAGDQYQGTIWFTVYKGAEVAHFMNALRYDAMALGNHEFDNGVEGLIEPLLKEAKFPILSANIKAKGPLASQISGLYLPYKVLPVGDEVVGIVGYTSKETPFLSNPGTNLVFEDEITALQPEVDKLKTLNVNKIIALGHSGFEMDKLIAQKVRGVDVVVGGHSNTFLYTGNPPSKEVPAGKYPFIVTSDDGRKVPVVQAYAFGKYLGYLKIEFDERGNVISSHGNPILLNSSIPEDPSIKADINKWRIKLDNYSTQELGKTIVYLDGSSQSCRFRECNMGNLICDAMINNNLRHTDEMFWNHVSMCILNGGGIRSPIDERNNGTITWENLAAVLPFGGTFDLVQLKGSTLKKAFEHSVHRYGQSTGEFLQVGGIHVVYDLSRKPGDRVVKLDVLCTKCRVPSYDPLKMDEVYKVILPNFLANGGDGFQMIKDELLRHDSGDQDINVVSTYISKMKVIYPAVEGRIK


Molecular target: T1, human CD73 (huCD73) protein, antigen of …
Test: SPR Biacore T200; antibody captured on Protein A chip, CD73 in flow; 1:1 Langmuir
Source text: In this experiment, Biacore instrument was used to determine the affinity of the humanized anti-CD73 antibodies to be tested with human CD73 (huCD73) and monkey CD73 (cynoCD73).
A certain amount of test antibody was affinity-captured with Protein A biosensing chip (Cat. #29127556, GE), and then a certain concentration of human or monkey CD73 antigen was allowed to flow through the surface of the chip. The reaction signals were detected in real time with Biacore instrument (Biacore T200, GE) to generate a binding and dissociation curve. At the end of each cycle, after the dissociation was completed, the biosensor chip was washed and regenerated with Glycine-HCl, pH1.5 (Cat. #BR-1003-54, GE). The running buffer for the assay was 1×HBS-EP buffer solution (Cat. #BR-1001-88, GE).
The data obtained from the experiment was fitted against (1:1) Langmuir model using GE Biacore T200 Evaluation version 3.0 software, and the affinity values were obtained, as shown in Table 12 and Table 13 for details.

Kd [nM]	koff [s⁻¹]	kon [M⁻¹ s⁻¹]	Binder
0.166	5.43e-05	327000	Hab110.23 (antibody, V domains shown, VL2 + VH3; recombined with human heavy and light constant regions) VH: EVQLVQSGAEVKKPGASVKVSCKASGYTFTSYTMHWVRQAPGQRLEWIGYINPNSFYIEYNQKFKDRATLTADTSASTAYMELSSLRSEDTAVYYCARGDYDLFYDMDNWGQGTTVTVSS VL: DIQMTQSPSSLSASVGDRVTITCRASQDIGNSLNWLQQKPGKAIKRLIYATFRLDSGVPSRFSGSRSGTEYTLTISSLQPEDFATYYCQQYASFPWTFGGGTKVEIK
0.277	4.6e-05	166000	Hab127.32 (antibody, V domains shown, VL3 + VH2; recombined with human heavy and light constant regions) VH: EVQLVQSGAEVKKPGASVKVSCKASGYTFTAYFMNWVMQAPGQGLEWMGRIYHNNGDTFYSQKFKGRVTMTVDKSTSTVYMELSSLRSEDTAVYYCATSYVGDWGQGTTVTVSS VL: DIQMTQSPSSLSASVGDRVTITCRASQDIGDSLNWLQQKPGGALKRLIYATSSLDSGVPSRFSGSGSGTEYTLTISSLQPEDFATYYCLQYASFPWTFGGGTKVEIK
0.244	9.4e-05	385000	Hab110.35 (antibody, V domains shown, VL3 + VH5; recombined with human heavy and light constant regions) VH: EVQLVQSGAEVKKPGASVKVSCKASGYTFTSYTMHWVKQAPGQGLEWIGYINPNSFYIEYNQKFKDKATLTADTSASTAYMELSSLRSEDTAVYYCARGDYDLFYDMDNWGQGTTVTVSS VL: DIQMTQSPSSLSASVGDRVTITCRASQDIGNSLNWLQQKPGGAIKRLIYATFRLDSGVPSRFSGSRSGTEYTLTISSLQPEDFADYYCQQYASFPWTFGGGTKVEIK
0.333	5.4e-05	162000	Hab127.21 (antibody, V domains shown, VL2 + VH1; recombined with human heavy and light constant regions) VH: EVQLVQSGAEVKKPGASVKVSCKASGYTFTAYFMNWVRQAPGQGLEWMGRIYHNNGDTFYSQKFKGRVTMTVDKSTSTVYMELSSLRSEDTAVYYCATSYVGDWGQGTTVTVSS VL: DIQMTQSPSSLSASVGDRVTITCRASQDIGDSLNWLQQKPGKAPKRLIYATSSLDSGVPSRFSGSGSGTEYTLTISSLQPEDFATYYCLQYASFPWTFGGGTKVEIK
0.188	6.2e-05	330000	Hab110.24 (antibody, V domains shown, VL2 + VH4; recombined with human heavy and light constant regions) VH: EVQLVQSGAEVKKPGASVKVSCKASGYTFTSYTMHWVRQAPGQRLEWIGYINPNSFYIEYNQKFKDKATLTADTSASTAYMELSSLRSEDTAVYYCARGDYDLFYDMDNWGQGTTVTVSS VL: DIQMTQSPSSLSASVGDRVTITCRASQDIGNSLNWLQQKPGKAIKRLIYATFRLDSGVPSRFSGSRSGTEYTLTISSLQPEDFATYYCQQYASFPWTFGGGTKVEIK
0.223	7.79e-05	349000	Hab110.25 (antibody, V domains shown, VL2 + VH5; recombined with human heavy and light constant regions) VH: EVQLVQSGAEVKKPGASVKVSCKASGYTFTSYTMHWVKQAPGQGLEWIGYINPNSFYIEYNQKFKDKATLTADTSASTAYMELSSLRSEDTAVYYCARGDYDLFYDMDNWGQGTTVTVSS VL: DIQMTQSPSSLSASVGDRVTITCRASQDIGNSLNWLQQKPGKAIKRLIYATFRLDSGVPSRFSGSRSGTEYTLTISSLQPEDFATYYCQQYASFPWTFGGGTKVEIK
0.28	4.48e-05	160000	Hab127.24 (antibody, V domains shown, VL2 + VH4; recombined with human heavy and light constant regions) VH: EVQLVQSGAEVKKPGASVKVSCKASGYTFTAYFMNWVMQAPGQSLEWIGRIYHNNGDTFYSQKFKGRATLTVDKSTSTVYMELRSLRSEDTAVYYCATSYVGDWGQGTTVTVSS VL: DIQMTQSPSSLSASVGDRVTITCRASQDIGDSLNWLQQKPGKAPKRLIYATSSLDSGVPSRFSGSGSGTEYTLTISSLQPEDFATYYCLQYASFPWTFGGGTKVEIK
0.228	8.16e-05	358000	Hab110.34 (antibody, V domains shown, VL3 + VH4; recombined with human heavy and light constant regions) VH: EVQLVQSGAEVKKPGASVKVSCKASGYTFTSYTMHWVRQAPGQRLEWIGYINPNSFYIEYNQKFKDKATLTADTSASTAYMELSSLRSEDTAVYYCARGDYDLFYDMDNWGQGTTVTVSS VL: DIQMTQSPSSLSASVGDRVTITCRASQDIGNSLNWLQQKPGGAIKRLIYATFRLDSGVPSRFSGSRSGTEYTLTISSLQPEDFADYYCQQYASFPWTFGGGTKVEIK
0.147	4.95e-05	338000	Hab110.22 (antibody, V domains shown, VL2 + VH2; recombined with human heavy and light constant regions) VH: EVQLVQSGAEVKKPGASVKVSCKASGYTFTSYTMHWVRQAPGQRLEWMGYINPNSFYIEYNQKFKDRVTITADTSASTAYMELSSLRSEDTAVYYCARGDYDLFYDMDNWGQGTTVTVSS VL: DIQMTQSPSSLSASVGDRVTITCRASQDIGNSLNWLQQKPGKAIKRLIYATFRLDSGVPSRFSGSRSGTEYTLTISSLQPEDFATYYCQQYASFPWTFGGGTKVEIK
0.219	4.8e-05	219000	Hab127.31a (antibody, V domains shown, VL3 + VH1a, HCDR2 hot-spot variant; full-length antibody) VH: EVQLVQSGAEVKKPGASVKVSCKASGYTFTAYFMNWVRQAPGQGLEWMGRIYHNQGDTFYSQKFKGRVTMTVDKSTSTVYMELSSLRSEDTAVYYCATSYVGDWGQGTTVTVSS VL: DIQMTQSPSSLSASVGDRVTITCRASQDIGDSLNWLQQKPGGALKRLIYATSSLDSGVPSRFSGSGSGTEYTLTISSLQPEDFATYYCLQYASFPWTFGGGTKVEIK
0.276	4.59e-05	166000	Hab127.23 (antibody, V domains shown, VL2 + VH3; recombined with human heavy and light constant regions) VH: EVQLVQSGAEVKKPGASVKVSCKASGYTFTAYFMNWVMQAPGQGLEWIGRIYHNNGDTFYSQKFKGRATLTVDKSTSTVYMELSSLRSEDTAVYYCATSYVGDWGQGTTVTVSS VL: DIQMTQSPSSLSASVGDRVTITCRASQDIGDSLNWLQQKPGKAPKRLIYATSSLDSGVPSRFSGSGSGTEYTLTISSLQPEDFATYYCLQYASFPWTFGGGTKVEIK
0.257	4.2e-05	163000	Hab127.31 (antibody, V domains shown, VL3 + VH1; recombined with human heavy and light constant regions) VH: EVQLVQSGAEVKKPGASVKVSCKASGYTFTAYFMNWVRQAPGQGLEWMGRIYHNNGDTFYSQKFKGRVTMTVDKSTSTVYMELSSLRSEDTAVYYCATSYVGDWGQGTTVTVSS VL: DIQMTQSPSSLSASVGDRVTITCRASQDIGDSLNWLQQKPGGALKRLIYATSSLDSGVPSRFSGSGSGTEYTLTISSLQPEDFATYYCLQYASFPWTFGGGTKVEIK
0.292	4.86e-05	166000	Hab127.22 (antibody, V domains shown, VL2 + VH2; recombined with human heavy and light constant regions) VH: EVQLVQSGAEVKKPGASVKVSCKASGYTFTAYFMNWVMQAPGQGLEWMGRIYHNNGDTFYSQKFKGRVTMTVDKSTSTVYMELSSLRSEDTAVYYCATSYVGDWGQGTTVTVSS VL: DIQMTQSPSSLSASVGDRVTITCRASQDIGDSLNWLQQKPGKAPKRLIYATSSLDSGVPSRFSGSGSGTEYTLTISSLQPEDFATYYCLQYASFPWTFGGGTKVEIK
0.847	0.000118	140000	Hab127.14 (antibody, V domains shown, VL1 + VH4; recombined with human heavy and light constant regions) VH: EVQLVQSGAEVKKPGASVKVSCKASGYTFTAYFMNWVMQAPGQSLEWIGRIYHNNGDTFYSQKFKGRATLTVDKSTSTVYMELRSLRSEDTAVYYCATSYVGDWGQGTTVTVSS VL: DIQMTQSPSSLSASVGDRVTITCRASQDIGDSLNWYQQKPGKAPKRLIYATSSLDSGVPSRFSGSGSGTEFTLTISSLQPEDFATYYCLQYASFPWTFGGGTKVEIK
0.161	5.86e-05	364000	Hab110.31 (antibody, V domains shown, VL3 + VH1; recombined with human heavy and light constant regions) VH: EVQLVQSGAEVKKPGASVKVSCKASGYTFTSYTMHWVRQAPGQRLEWMGYINPNSFYIEYNQKFKDRVTITRDTSASTAYMELSSLRSEDTAVYYCARGDYDLFYDMDNWGQGTTVTVSS VL: DIQMTQSPSSLSASVGDRVTITCRASQDIGNSLNWLQQKPGGAIKRLIYATFRLDSGVPSRFSGSRSGTEYTLTISSLQPEDFADYYCQQYASFPWTFGGGTKVEIK
0.188	6.94e-05	370000	Hab110.32 (antibody, V domains shown, VL3 + VH2; recombined with human heavy and light constant regions) VH: EVQLVQSGAEVKKPGASVKVSCKASGYTFTSYTMHWVRQAPGQRLEWMGYINPNSFYIEYNQKFKDRVTITADTSASTAYMELSSLRSEDTAVYYCARGDYDLFYDMDNWGQGTTVTVSS VL: DIQMTQSPSSLSASVGDRVTITCRASQDIGNSLNWLQQKPGGAIKRLIYATFRLDSGVPSRFSGSRSGTEYTLTISSLQPEDFADYYCQQYASFPWTFGGGTKVEIK
0.79	0.000119	150000	Hab127.13 (antibody, V domains shown, VL1 + VH3; recombined with human heavy and light constant regions) VH: EVQLVQSGAEVKKPGASVKVSCKASGYTFTAYFMNWVMQAPGQGLEWIGRIYHNNGDTFYSQKFKGRATLTVDKSTSTVYMELSSLRSEDTAVYYCATSYVGDWGQGTTVTVSS VL: DIQMTQSPSSLSASVGDRVTITCRASQDIGDSLNWYQQKPGKAPKRLIYATSSLDSGVPSRFSGSGSGTEFTLTISSLQPEDFATYYCLQYASFPWTFGGGTKVEIK
